What was measured:
Assay in all cases: cell-based or functional assay
[1] = target: ACTR variant SEQ ID NO: 10
[2] = target: ACTR variant SEQ ID NO: 57
[3] = target: ACTR variant SEQ ID NO: 58
[4] = target: ACTR variant SEQ ID NO: 59
[5] = target: ACTR variant SEQ ID NO: 60
[6] = target: ACTR variant SEQ ID NO: 61
[7] = target: ACTR variant SEQ ID NO: 62
[8] = target: ACTR variant SEQ ID NO: 63
[9] = target: ACTR variant SEQ ID NO: 7
ACTR variant SEQ ID NO: 7, sequence (chain, as listed by the source mutant limits assumed): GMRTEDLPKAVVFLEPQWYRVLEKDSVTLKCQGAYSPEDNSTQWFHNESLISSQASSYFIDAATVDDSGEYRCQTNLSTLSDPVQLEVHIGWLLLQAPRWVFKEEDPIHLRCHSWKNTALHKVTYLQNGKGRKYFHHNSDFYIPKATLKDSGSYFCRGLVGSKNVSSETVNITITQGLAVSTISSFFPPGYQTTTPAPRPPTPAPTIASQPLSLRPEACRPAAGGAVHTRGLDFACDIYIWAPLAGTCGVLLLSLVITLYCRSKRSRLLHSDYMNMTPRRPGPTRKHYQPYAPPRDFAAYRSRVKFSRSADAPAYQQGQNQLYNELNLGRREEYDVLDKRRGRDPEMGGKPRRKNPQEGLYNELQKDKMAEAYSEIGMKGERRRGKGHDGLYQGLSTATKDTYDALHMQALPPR

ACTR variant SEQ ID NO: 60, sequence (chain, as listed by the source mutant limits assumed): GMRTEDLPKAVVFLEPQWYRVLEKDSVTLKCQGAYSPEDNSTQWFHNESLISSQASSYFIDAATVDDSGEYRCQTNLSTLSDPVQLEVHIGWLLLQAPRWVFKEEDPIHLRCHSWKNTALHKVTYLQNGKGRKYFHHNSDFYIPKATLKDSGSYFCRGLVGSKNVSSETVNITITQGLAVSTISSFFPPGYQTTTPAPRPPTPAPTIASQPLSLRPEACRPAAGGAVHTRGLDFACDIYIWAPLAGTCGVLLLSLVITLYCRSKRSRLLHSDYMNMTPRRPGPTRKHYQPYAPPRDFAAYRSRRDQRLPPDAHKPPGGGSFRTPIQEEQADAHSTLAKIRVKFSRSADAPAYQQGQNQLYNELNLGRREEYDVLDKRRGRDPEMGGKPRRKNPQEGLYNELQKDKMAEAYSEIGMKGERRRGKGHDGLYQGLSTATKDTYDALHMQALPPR
ACTR variant SEQ ID NO: 61, sequence (chain, as listed by the source mutant limits assumed): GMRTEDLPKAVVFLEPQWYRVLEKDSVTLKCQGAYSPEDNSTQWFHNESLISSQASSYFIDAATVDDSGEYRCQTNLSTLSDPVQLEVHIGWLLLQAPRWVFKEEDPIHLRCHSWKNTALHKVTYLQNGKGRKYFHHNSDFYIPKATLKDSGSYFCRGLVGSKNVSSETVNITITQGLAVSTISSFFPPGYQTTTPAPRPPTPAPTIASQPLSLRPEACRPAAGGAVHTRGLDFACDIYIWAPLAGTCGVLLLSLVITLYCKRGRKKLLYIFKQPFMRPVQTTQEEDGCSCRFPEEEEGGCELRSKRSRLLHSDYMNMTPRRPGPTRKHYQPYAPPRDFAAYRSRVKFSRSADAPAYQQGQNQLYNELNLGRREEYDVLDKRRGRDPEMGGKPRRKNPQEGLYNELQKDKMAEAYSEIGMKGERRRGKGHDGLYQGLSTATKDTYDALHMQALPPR
ACTR variant SEQ ID NO: 63, sequence (chain, as listed by the source mutant limits assumed): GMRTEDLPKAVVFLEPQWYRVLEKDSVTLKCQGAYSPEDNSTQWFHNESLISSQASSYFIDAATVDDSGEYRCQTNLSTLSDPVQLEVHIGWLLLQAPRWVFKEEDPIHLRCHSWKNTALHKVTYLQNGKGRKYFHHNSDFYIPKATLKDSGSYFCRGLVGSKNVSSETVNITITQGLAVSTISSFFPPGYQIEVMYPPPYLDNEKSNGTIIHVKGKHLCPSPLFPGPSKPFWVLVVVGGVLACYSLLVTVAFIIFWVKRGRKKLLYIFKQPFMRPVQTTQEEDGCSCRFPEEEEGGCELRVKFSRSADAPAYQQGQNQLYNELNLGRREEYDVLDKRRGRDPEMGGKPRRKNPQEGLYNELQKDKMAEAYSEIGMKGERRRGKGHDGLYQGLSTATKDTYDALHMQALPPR
ACTR variant SEQ ID NO: 57, sequence (chain, as listed by the source mutant): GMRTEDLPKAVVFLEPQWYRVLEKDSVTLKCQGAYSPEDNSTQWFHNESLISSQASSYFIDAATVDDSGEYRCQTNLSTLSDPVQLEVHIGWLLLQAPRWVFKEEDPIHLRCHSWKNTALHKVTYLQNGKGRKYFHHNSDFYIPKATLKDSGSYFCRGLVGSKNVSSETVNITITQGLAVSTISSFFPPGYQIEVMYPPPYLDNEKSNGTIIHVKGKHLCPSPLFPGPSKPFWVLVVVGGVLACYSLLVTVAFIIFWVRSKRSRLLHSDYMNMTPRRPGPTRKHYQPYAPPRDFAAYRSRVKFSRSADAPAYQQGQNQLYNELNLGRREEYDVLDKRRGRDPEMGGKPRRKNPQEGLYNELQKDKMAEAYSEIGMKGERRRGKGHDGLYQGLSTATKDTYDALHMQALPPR
ACTR variant SEQ ID NO: 10, sequence (chain, as listed by the source mutant limits assumed): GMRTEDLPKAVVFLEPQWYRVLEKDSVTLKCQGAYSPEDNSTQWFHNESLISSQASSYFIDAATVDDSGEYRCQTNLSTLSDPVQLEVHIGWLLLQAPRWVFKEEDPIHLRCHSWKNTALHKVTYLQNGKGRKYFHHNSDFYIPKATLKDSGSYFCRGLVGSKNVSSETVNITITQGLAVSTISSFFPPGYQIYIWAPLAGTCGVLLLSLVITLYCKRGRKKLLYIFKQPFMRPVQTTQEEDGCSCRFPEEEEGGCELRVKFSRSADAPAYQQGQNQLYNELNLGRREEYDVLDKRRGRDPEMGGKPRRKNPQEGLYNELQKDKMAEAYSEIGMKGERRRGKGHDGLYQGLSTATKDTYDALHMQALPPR
ACTR variant SEQ ID NO: 58, sequence (chain, as listed by the source mutant): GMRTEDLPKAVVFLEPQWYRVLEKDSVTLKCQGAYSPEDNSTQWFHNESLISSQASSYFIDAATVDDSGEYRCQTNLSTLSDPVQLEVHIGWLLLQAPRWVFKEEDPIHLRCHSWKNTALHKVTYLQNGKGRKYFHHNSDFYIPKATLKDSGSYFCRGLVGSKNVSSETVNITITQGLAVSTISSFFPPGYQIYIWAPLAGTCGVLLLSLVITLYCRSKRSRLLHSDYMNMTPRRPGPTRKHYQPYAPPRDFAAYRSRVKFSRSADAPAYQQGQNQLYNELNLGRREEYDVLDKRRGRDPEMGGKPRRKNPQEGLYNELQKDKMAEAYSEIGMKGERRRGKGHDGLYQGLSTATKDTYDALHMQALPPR
ACTR variant SEQ ID NO: 59, sequence (chain, as listed by the source mutant limits assumed): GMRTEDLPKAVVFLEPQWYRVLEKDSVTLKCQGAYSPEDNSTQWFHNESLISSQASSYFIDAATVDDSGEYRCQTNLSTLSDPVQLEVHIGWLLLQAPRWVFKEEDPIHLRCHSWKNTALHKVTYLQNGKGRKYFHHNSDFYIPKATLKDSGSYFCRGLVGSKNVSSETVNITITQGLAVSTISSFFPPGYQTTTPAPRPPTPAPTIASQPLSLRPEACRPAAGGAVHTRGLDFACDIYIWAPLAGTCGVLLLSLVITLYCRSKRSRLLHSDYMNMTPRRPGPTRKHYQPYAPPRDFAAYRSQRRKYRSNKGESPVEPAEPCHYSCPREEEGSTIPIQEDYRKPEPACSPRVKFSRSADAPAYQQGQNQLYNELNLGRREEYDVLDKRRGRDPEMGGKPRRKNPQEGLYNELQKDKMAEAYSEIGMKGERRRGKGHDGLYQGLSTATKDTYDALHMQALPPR
ACTR variant SEQ ID NO: 62, sequence (chain, as listed by the source mutant limits assumed): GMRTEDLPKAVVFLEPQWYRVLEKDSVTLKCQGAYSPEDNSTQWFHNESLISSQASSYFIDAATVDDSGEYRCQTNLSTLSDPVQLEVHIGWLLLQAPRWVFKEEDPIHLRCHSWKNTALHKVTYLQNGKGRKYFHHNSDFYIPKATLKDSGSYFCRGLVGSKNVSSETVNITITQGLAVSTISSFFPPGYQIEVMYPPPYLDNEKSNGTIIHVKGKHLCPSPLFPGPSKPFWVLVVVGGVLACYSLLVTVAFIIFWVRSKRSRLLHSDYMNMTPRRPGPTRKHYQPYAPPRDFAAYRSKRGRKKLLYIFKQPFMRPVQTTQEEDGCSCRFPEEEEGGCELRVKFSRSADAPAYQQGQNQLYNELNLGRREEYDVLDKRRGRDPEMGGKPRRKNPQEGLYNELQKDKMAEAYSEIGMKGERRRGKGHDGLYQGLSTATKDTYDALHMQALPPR

B1: humanized afucosylated (SEA) anti-BCMA antibody hSG16.17SEA (antibody, V domains shown)
VH: QVQLVQSGAEVKKPGASVKLSCKASGYTFTDYYIHWVRQAPGQGLEWIGYINPNSGYTNYAQKFQGRATMTADKSINTAYVELSRLRSDDTAVYFCTRYMWERVTGFFDFWGQGTMVTVSS
VL: DIQMTQSPSSVSASVGDRVTITCLASEDISDDLAWYQQKPGKAPKVLVYTTSSLQSGVPSRFSGSGSGTDFTLTISSLQPEDFATYFCQQTYKFPPTFGGGTKVEIKR
For B1, the IFNγ Release (pg/mL), ACTR T cells + NCI-H929 Target Cells + hSG16.17SEA (1 µg/mL) [1] was 19800 pg/mL, the IFNγ Release (pg/mL), ACTR T cells + U266B1 Target Cells + hSG16.17SEA (1 µg/mL) [1] was 7970 pg/mL and the IL-2 Release (pg/mL), ACTR T cells + NCI-H929 Target Cells + hSG16.17SEA (1 µg/mL) [1] was 224 pg/mL. The IL-2 Release (pg/mL), ACTR T cells + U266B1 Target Cells + hSG16.17SEA (1 µg/mL) [1] was 260 pg/mL, the T-cell proliferation: fold increase in CD3+ cells at 1 µg/mL hSG16.17SEA relative to no antibody, NCI-H929 Target Cells [1] was 7.46 fold and the T-cell proliferation: fold increase in CD3+ cells at 1 µg/mL hSG16.17SEA relative to no antibody, U266B1 Target Cells [1] was 1.62 fold. It also gave an IFNγ Release (pg/mL), ACTR T cells + NCI-H929 Target Cells + hSG16.17SEA (1 µg/mL) [2] of 16700 pg/mL, an IFNγ Release (pg/mL), ACTR T cells + U266B1 Target Cells + hSG16.17SEA (1 µg/mL) [2] of 12600 pg/mL and an IL-2 Release (pg/mL), ACTR T cells + NCI-H929 Target Cells + hSG16.17SEA (1 µg/mL) [2] of 373 pg/mL. For the same binder, the IL-2 Release (pg/mL), ACTR T cells + U266B1 Target Cells + hSG16.17SEA (1 µg/mL) [2] was 187 pg/mL, the T-cell proliferation: fold increase in CD3+ cells at 1 µg/mL hSG16.17SEA relative to no antibody, NCI-H929 Target Cells [2] was 35.5 fold and the T-cell proliferation: fold increase in CD3+ cells at 1 µg/mL hSG16.17SEA relative to no antibody, U266B1 Target Cells [2] was 49.5 fold. The IFNγ Release (pg/mL), ACTR T cells + NCI-H929 Target Cells + hSG16.17SEA (1 µg/mL) [3] was 16800 pg/mL, the IFNγ Release (pg/mL), ACTR T cells + U266B1 Target Cells + hSG16.17SEA (1 µg/mL) [3] was 12700 pg/mL and the IL-2 Release (pg/mL), ACTR T cells + NCI-H929 Target Cells + hSG16.17SEA (1 µg/mL) [3] was 420 pg/mL. The IL-2 Release (pg/mL), ACTR T cells + U266B1 Target Cells + hSG16.17SEA (1 µg/mL) [3] was 17.8 pg/mL, the T-cell proliferation: fold increase in CD3+ cells at 1 µg/mL hSG16.17SEA relative to no antibody, NCI-H929 Target Cells [3] was 9.76 fold and the T-cell proliferation: fold increase in CD3+ cells at 1 µg/mL hSG16.17SEA relative to no antibody, U266B1 Target Cells [3] was 4.75 fold. The IFNγ Release (pg/mL), ACTR T cells + NCI-H929 Target Cells + hSG16.17SEA (1 µg/mL) [4] was 17100 pg/mL, the IFNγ Release (pg/mL), ACTR T cells + U266B1 Target Cells + hSG16.17SEA (1 µg/mL) [4] was 12600 pg/mL and the IL-2 Release (pg/mL), ACTR T cells + NCI-H929 Target Cells + hSG16.17SEA (1 µg/mL) [4] was 46.6 pg/mL. It also gave an IL-2 Release (pg/mL), ACTR T cells + U266B1 Target Cells + hSG16.17SEA (1 µg/mL) [4] of 214 pg/mL, a T-cell proliferation: fold increase in CD3+ cells at 1 µg/mL hSG16.17SEA relative to no antibody, NCI-H929 Target Cells [4] of 11.5 fold and a T-cell proliferation: fold increase in CD3+ cells at 1 µg/mL hSG16.17SEA relative to no antibody, U266B1 Target Cells [4] of 6.91 fold. For the same binder, the IFNγ Release (pg/mL), ACTR T cells + NCI-H929 Target Cells + hSG16.17SEA (1 µg/mL) [5] was 18600 pg/mL, the IFNγ Release (pg/mL), ACTR T cells + U266B1 Target Cells + hSG16.17SEA (1 µg/mL) [5] was 14400 pg/mL and the IL-2 Release (pg/mL), ACTR T cells + NCI-H929 Target Cells + hSG16.17SEA (1 µg/mL) [5] was 258 pg/mL. The IL-2 Release (pg/mL), ACTR T cells + U266B1 Target Cells + hSG16.17SEA (1 µg/mL) [5] was 48.6 pg/mL, the T-cell proliferation: fold increase in CD3+ cells at 1 µg/mL hSG16.17SEA relative to no antibody, NCI-H929 Target Cells [5] was 18.3 fold and the T-cell proliferation: fold increase in CD3+ cells at 1 µg/mL hSG16.17SEA relative to no antibody, U266B1 Target Cells [5] was 11.7 fold. It also gave an IFNγ Release (pg/mL), ACTR T cells + NCI-H929 Target Cells + hSG16.17SEA (1 µg/mL) [6] of 22900 pg/mL, an IFNγ Release (pg/mL), ACTR T cells + U266B1 Target Cells + hSG16.17SEA (1 µg/mL) [6] of 11600 pg/mL and an IL-2 Release (pg/mL), ACTR T cells + NCI-H929 Target Cells + hSG16.17SEA (1 µg/mL) [6] of 178 pg/mL. It also gave an IL-2 Release (pg/mL), ACTR T cells + U266B1 Target Cells + hSG16.17SEA (1 µg/mL) [6] of 132 pg/mL, a T-cell proliferation: fold increase in CD3+ cells at 1 µg/mL hSG16.17SEA relative to no antibody, NCI-H929 Target Cells [6] of 15.8 fold and a T-cell proliferation: fold increase in CD3+ cells at 1 µg/mL hSG16.17SEA relative to no antibody, U266B1 Target Cells [6] of 8.72 fold. The IFNγ Release (pg/mL), ACTR T cells + NCI-H929 Target Cells + hSG16.17SEA (1 µg/mL) [7] was 14500 pg/mL, the IFNγ Release (pg/mL), ACTR T cells + U266B1 Target Cells + hSG16.17SEA (1 µg/mL) [7] was 7580 pg/mL and the IL-2 Release (pg/mL), ACTR T cells + NCI-H929 Target Cells + hSG16.17SEA (1 µg/mL) [7] was 119 pg/mL. It also gave an IL-2 Release (pg/mL), ACTR T cells + U266B1 Target Cells + hSG16.17SEA (1 µg/mL) [7] of 12.3 pg/mL, a T-cell proliferation: fold increase in CD3+ cells at 1 µg/mL hSG16.17SEA relative to no antibody, NCI-H929 Target Cells [7] of 6.24 fold and a T-cell proliferation: fold increase in CD3+ cells at 1 µg/mL hSG16.17SEA relative to no antibody, U266B1 Target Cells [7] of 2.87 fold. For the same binder, the IFNγ Release (pg/mL), ACTR T cells + NCI-H929 Target Cells + hSG16.17SEA (1 µg/mL) [8] was 16000 pg/mL, the IFNγ Release (pg/mL), ACTR T cells + U266B1 Target Cells + hSG16.17SEA (1 µg/mL) [8] was 10400 pg/mL and the IL-2 Release (pg/mL), ACTR T cells + NCI-H929 Target Cells + hSG16.17SEA (1 µg/mL) [8] was 66.5 pg/mL. For the same binder, the IL-2 Release (pg/mL), ACTR T cells + U266B1 Target Cells + hSG16.17SEA (1 µg/mL) [8] was 1.6 pg/mL, the T-cell proliferation: fold increase in CD3+ cells at 1 µg/mL hSG16.17SEA relative to no antibody, NCI-H929 Target Cells [8] was 3.76 fold and the T-cell proliferation: fold increase in CD3+ cells at 1 µg/mL hSG16.17SEA relative to no antibody, U266B1 Target Cells [8] was 2.82 fold. It also gave an IFNγ Release (pg/mL), ACTR T cells + NCI-H929 Target Cells + hSG16.17SEA (1 µg/mL) [9] of 6250 pg/mL, an IFNγ Release (pg/mL), ACTR T cells + U266B1 Target Cells + hSG16.17SEA (1 µg/mL) [9] of 13700 pg/mL and an IL-2 Release (pg/mL), ACTR T cells + NCI-H929 Target Cells + hSG16.17SEA (1 µg/mL) [9] of 262 pg/mL. For the same binder, the IL-2 Release (pg/mL), ACTR T cells + U266B1 Target Cells + hSG16.17SEA (1 µg/mL) [9] was 34.8 pg/mL, the T-cell proliferation: fold increase in CD3+ cells at 1 µg/mL hSG16.17SEA relative to no antibody, NCI-H929 Target Cells [9] was 80.1 fold and the T-cell proliferation: fold increase in CD3+ cells at 1 µg/mL hSG16.17SEA relative to no antibody, U266B1 Target Cells [9] was 52 fold.

— US20190381171A1, “CO-USE OF ANTI-BCMA ANTIBODY AND ANTIBODY-COUPLED T CELL RECEPTOR (ACTR) IN CANCER THERAPY AND B CELL DISORDERS” (UNUM THERAPEUTICS INC., priority 2017, published 2019)
